Among the data in the RNAGym collection of RNA variant scans (doi:10.7554/elife.80360) are self-cleavage values, retold here.

Sequences and labels used below:
B1: HDV Ribozyme (parent)
chain: GGCCGGCAUGGUCCCAGCCUCCUCGCUGGCGCCGGCUGGGCAACAUUCCGAGGGGACCGUCCCCUCGGUAAUGGCGAAUGGGACCCA

In the series the parent is B1. Put plainly: self-cleavage, relative activity (ratio to wild type); higher = more cleavage; co-transcriptional.
Consider GGCCGGCAUGGUCACAGCCUCCUCGCUGGCGCCGGCUGGGCAACAUUCCGAGGGGACCGUCCCCACGGUAAUGGCGAAUGGGACCCA [C14A U65A], for which the self-cleavage came to 0.811. The figure for GGCCGGCAUGGUCACAGCCUCCUCGCGGGCGCCGGCUGGGCAACAUUCCGAGGGGACCGUCCCCUCGGUAAUGGCGAAUGGGACCCA [C14A U27G] is 0.895; for GGCCGGCAUGGUCACAGCCUCCUCGCUGGCGCCGGCUGGGCAACAUUCCGAGGGGACCGUCCCCUCGGCAAUGGCGAAUGGGACCCA [C14A U69C] it is 0.95. Consider GGCCGGCAUGGUCACAGCCACCUCGCUGGCGCCGGCUGGGCAACAUUCCGAGGGGACCGUCCCCUCGGUAAUGGCGAAUGGGACCCA [C14A U20A], for which the self-cleavage came out at 0. For GGCCGGCAUGGUCACAGCCUCCUCGCUGGCGCCCGCUGGGCAACAUUCCGAGGGGACCGUCCCCUCGGUAAUGGCGAAUGGGACCCA [C14A G34C], the self-cleavage was found to be 0.151. Regarding GGCCGGCAUGGUCGCAGCCUCCUCGUUGGCGCCGGCUGGGCAACAUUCCGAGGGGACCGUCCCCUCGGUAAUGGCGAAUGGGACCCA [C14G C26U], the self-cleavage was 1.18. The figure for GGCCGGCAUGGUCACAGCCUCCUCGCUGGCGCCGGCUGGGCAACAUUCCGAGGGGACCGUCCCCUCGGUAAUGUCGAAUGGGACCCA [C14A G74U] is 0.281; for GGCCGGCAUGGUCACAGCCUCCUCGCUGGCGCCGGCUGGGCAACAUUCCGAGGGGACCGUCCCCUCGGUAAUGACGAAUGGGACCCA [C14A G74A] it is 0.182; for GGCCGGCAUGGUCGCAGCCUCCUCGCUGGCGCCGGCUGGGCAACAUUCCGAGGGGACCGUCCCCUCGGUAAUGGCGAAUGGGACCCG [C14G A87G] it is 0.683. As to GGCCGGCAUGGUCGCAGCCUCCUCGCUGGUGCCGGCUGGGCAACAUUCCGAGGGGACCGUCCCCUCGGUAAUGGCGAAUGGGACCCA [C14G C30U], the self-cleavage is 0.0396. With GGCCGGCAUGGUCGCAGCCUCCUCGCUGGCGCCGGCUGGGCAACAUUCCGAGGGGACCGUACCCUCGGUAAUGGCGAAUGGGACCCA [C14G C61A] the figure was 0.88. For the variant GGCCGGCAUGGUCACAGCCUCCUCCCUGGCGCCGGCUGGGCAACAUUCCGAGGGGACCGUCCCCUCGGUAAUGGCGAAUGGGACCCA [C14A G25C], the self-cleavage came to 0.201. Regarding GGCCGGCAUGGUCACAGCCUCCUCUCUGGCGCCGGCUGGGCAACAUUCCGAGGGGACCGUCCCCUCGGUAAUGGCGAAUGGGACCCA [C14A G25U], the self-cleavage was determined as 0.0652.

In the case of GGCCGGCAUGGUCGCAGCCUCCUCGCUAGCGCCGGCUGGGCAACAUUCCGAGGGGACCGUCCCCUCGGUAAUGGCGAAUGGGACCCA [C14G G28A], the self-cleavage is 0.0415. Regarding GGCCGGCAUGGUCACAGCCUCCUCGCUGGCGCCGGCUGGGCAACAUUCCGAGGUGACCGUCCCCUCGGUAAUGGCGAAUGGGACCCA [C14A G54U], the self-cleavage is 0.628. For the variant GGCCGGCAUGGUCGCAGCCUCCUCGCUGGCGCCGGGUGGGCAACAUUCCGAGGGGACCGUCCCCUCGGUAAUGGCGAAUGGGACCCA [C14G C36G], the self-cleavage came out at 0.237. With GGCCGGCAUGGUCACAGCCUCCUCGCUGGCGCCGGCUGGGCAACAUUCCGAGGGGACCGUCCCCUCGGUAAUGGUGAAUGGGACCCA [C14A C75U], the self-cleavage was found to be 0.

Turning to GGCCGGCAUGGUCACAGCCUCCUCGCUGGCGCCGGCUGGGCAACAUGCCGAGGGGACCGUCCCCUCGGUAAUGGCGAAUGGGACCCA [C14A U47G], the self-cleavage worked out at 0.519. With GGCCGGCAUGGUCACAGCCUCCUCGCUGGCGCCGGCUGGGCAACAUCCCGAGGGGACCGUCCCCUCGGUAAUGGCGAAUGGGACCCA [C14A U47C] the figure was 0.415; with GGCCGGCAUGGUCACAGCCUCCUCGCUGGCGCCGGCUGGGCAACAUUCCGAGGGGACCGUCCCCUCGGUAAUGGCUAAUGGGACCCA [C14A G76U], 1.27; with GGCCGGCAUGGUCACAGCCUCCUCGCUGGCGCCGGCUGGGCAACAUUCCGACGGGACCGUCCCCUCGGUAAUGGCGAAUGGGACCCA [C14A G52C], 0.782. As for GGCCGGCAUGGUCGCAGCCUCCUCGCUGGCGCCGGCUGGGCGACAUUCCGAGGGGACCGUCCCCUCGGUAAUGGCGAAUGGGACCCA [C14G A42G], the self-cleavage came out at 0. The figure for GGCCGGCAUGGUCGCAGCCUCCUCGCUGGCGCCGGCUGGGCUACAUUCCGAGGGGACCGUCCCCUCGGUAAUGGCGAAUGGGACCCA [C14G A42U] is 0.252; for GGCCGGCAUGGUCACAGCCUCCUCGCUCGCGCCGGCUGGGCAACAUUCCGAGGGGACCGUCCCCUCGGUAAUGGCGAAUGGGACCCA [C14A G28C] it is 0.142; for GGCCGGCAUGGUCGCAGCCUCCUCGCUGGCGCAGGCUGGGCAACAUUCCGAGGGGACCGUCCCCUCGGUAAUGGCGAAUGGGACCCA [C14G C33A] it is 0.151. Turning to GGCCGGCAUGGUCACAGCCUCCUCGCUGGCGCCGGCUGCGCAACAUUCCGAGGGGACCGUCCCCUCGGUAAUGGCGAAUGGGACCCA [C14A G39C], the self-cleavage is 0.0615.

On to GGCCGGCAUGGUCACAGCCUCCUCGCUGGCGCCGGCUGGGCAACAUUCCGAGGGGACCGUCCCCUCGGUAAUGGCGAAUGGGACCUA [C14A C86U], for which the self-cleavage stood at 0.9. For GGCCGGCAUGGUCACAGCCUCCUCGCUGGCGCCGGCUGGGCAACAUUCCGAGGGGACCGUCCCCUCGGUAAUGGCGAAUGGGACCGA [C14A C86G], the self-cleavage came to 0.378. As to GGCCGGCAUGGUCGCAGCCUCCUCGCUGGCGCCGGCUGGGAAACAUUCCGAGGGGACCGUCCCCUCGGUAAUGGCGAAUGGGACCCA [C14G C41A], the self-cleavage turned out to be 0.776. Consider GGCCGGCAUGGUCGCAGCCUCCUCGCUGGCGCCGGCUGGGCAACAUUCGGAGGGGACCGUCCCCUCGGUAAUGGCGAAUGGGACCCA [C14G C49G], for which the self-cleavage came to 0.383. With GGCCGGCAUGGUCGCAGCCUCCUCGCUGGCGCCGGCUGGGCAACAUUCUGAGGGGACCGUCCCCUCGGUAAUGGCGAAUGGGACCCA [C14G C49U], the self-cleavage worked out at 0.529. Take GGCCGGCAUGGUCGCAGCCUCCUCGCUGGCGCCGGCUGGGCAACAUUCCGAGGGGACCGUCCCCUCGGUAAUGGCGAAUGGGAGCCA [C14G C84G]: the self-cleavage was found to be 0.128.
